Test results from patent publication US12187807B2, “Antibody molecules to C5AR1 and uses thereof” (Visterra, Inc., priority 2020, dated 2025).
One block for each molecule: values may come before it.

Key:
[1] = target: T1, biotinylated peptide representing the N-terminus of C5aR1 without tyrosine sulfation (Homo sapiens, UniProt P21730); assay: Epitope mapping by biolayer interferometry, N-terminus without tyrosine sulfation; assay type: binding; design: key: “+” indicates binding to the listed peptide; “−” indicates lack of binding to the listed peptide; conditions: 10 μg/mL of antibody, biotinylated peptide on streptavidin biosensor
T1 construct: the N-terminus without tyrosine sulfation
T1 sequence (P21730 1-37 limits assumed): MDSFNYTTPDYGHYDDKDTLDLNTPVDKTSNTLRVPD
Experimental: (§1) The epitope mapping was undertaken, using biolayer interferometry, on a series of exemplary anti-C5aR1 antibodies generated as described in Example 1. Briefly, for each antibody, biotinylated peptides representing ECL2, the N-terminus with tyrosine sulfation, and the N-terminus without tyrosine sulfation, were immobilized in a streptavidin biosensor. Subsequently, the biosensor was exposed to 10 μg/mL of antibody to detect antibody binding to the immobilized peptide. The results of the epitope mapping study are shown in Table 4 (“+” indicates binding to the listed peptide; “−” indicates lack of binding to the listed peptide).

[2] = target: T2, biotinylated peptide representing the N-terminus of C5aR1 with tyrosine sulfation (Homo sapiens, UniProt P21730); assay: Epitope mapping by biolayer interferometry, N-terminus with tyrosine sulfation; assay type: binding; design: key: “+” indicates binding to the listed peptide; “−” indicates lack of binding to the listed peptide; conditions: 10 μg/mL of antibody, biotinylated peptide on streptavidin biosensor
T2 construct: the N-terminus with tyrosine sulfation
T2 sequence (P21730 1-37): T1 sequence (P21730 1-37 limits assumed)
Experimental: as §1

[3] = target: T3, biotinylated peptide representing ECL2 of C5aR1 (Homo sapiens, UniProt P21730); assay: Epitope mapping by biolayer interferometry, ECL2 peptide; assay type: binding; design: key: “+” indicates binding to the listed peptide; “−” indicates lack of binding to the listed peptide; conditions: biolayer interferometry, 10 μg/mL of antibody, biotinylated peptide on streptavidin biosensor
T3 construct: cyclic ECL2 peptide spanning from residues R175 to C188
Experimental: as §1

[4] = target: T4, C5aR1 (Homo sapiens, UniProt P21730); assay: GeneBLAzer reporter assay (C5aR1 mediated Gα signaling); assay type: cell-based; design: host or cells: vendor's C5aR1 GeneBLAzer reporter cell line; conditions: 10 nM of antibody, 10 nM C5a
T4 sequence (P21730 1-350): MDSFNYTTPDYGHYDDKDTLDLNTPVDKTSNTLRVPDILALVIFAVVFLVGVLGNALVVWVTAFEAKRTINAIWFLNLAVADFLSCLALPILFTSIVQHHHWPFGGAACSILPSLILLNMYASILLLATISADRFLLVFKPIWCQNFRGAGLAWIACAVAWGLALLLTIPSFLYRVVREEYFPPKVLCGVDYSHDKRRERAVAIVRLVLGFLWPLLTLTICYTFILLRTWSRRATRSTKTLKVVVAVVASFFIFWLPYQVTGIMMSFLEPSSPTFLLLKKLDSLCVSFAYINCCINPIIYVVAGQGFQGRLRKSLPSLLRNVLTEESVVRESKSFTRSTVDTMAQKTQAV
Experimental: In addition, a GeneBLAzer reporter assay was used, which mimics the calcium flux assay. The GeneBLAzer assay kit and C5aR1 cell line were commercially available from Thermo Fisher (Catalog #K1544). The assay was performed as recommend by the manufacturer. Briefly, antibodies or antagonists were incubated for 30 minutes at 37° C. C5a was then added to the cells and incubated at 37° C. for an additional 4-5 hours. Beta-lactamase substrate was then added and incubated for 2 hours at room temperature. Fluorescent measurements for each well with an excitation/emission of 409/460 (blue) and 409/530 (green) were measured. An increase in the blue to green ratio was proportional to C5aR1 activation and was used to calculate the percent of activation for the cells in each well.
Exemplary anti-C5aR1 antibodies generated as described in Example 1 were screened for antagonist activity against human C5aR1 using the GeneBLAzer assay, as described in Example 1. Briefly, cells were pre-incubated with 10 nM of antibody followed by addition of 10 nM C5a. The engineered induction of beta-lactamase expression by C5a-C5aR1 signaling was measured using the BLA substrate and calculating the ratio of blue and green fluorescence.

- Binding to Non-sulfated N-terminal peptide [1]: −
- Binding to Sulfated N-terminal peptide [2]: −
- Binding to Cyclic ECL2 peptide [3]: +
B1: clone 336v2-1: exemplary anti-C5aR1 antibody, Table 1C (antibody, V domains shown)
VH: QVQLKQSGPGLVQSSQSLSITCTVSGFSLISYGVHWVRQSPGKGLEWLGVIWSGGSTDYNAAFKSRLSITKDNSKSQVFFKMNSLQADDTAIYYCAKNSQLGNAMDYWGQGTTVTVSS
VL: DIVMSQSPSSLAVSAGEKVTMSCKSSQSLLSSRTRKNYLAWYQQKPGQSPKLLIYWASTRESGVPDRFTGSGSGTDFTLTISSVQAEDLALYFCNQSYDLLTFGAGTKLEIK

- antagonism of C5aR1 compared to reference antibodies or to Avacopan [4]: comparable
B2: clone 322: anti-C5aR1 Site I antibody; VH SEQ ID NO: 491, VL SEQ ID NO: 551 (antibody, V domains shown)
VH: QVQLQQSDAALVKPGASVKISCKASGHTFTDHAIHWVKQRPEQGLEWIGYISPGNGDIKYNDKFKGKATLTADKSSSTAYMQLNSLTPEDSAVYFCKGPLFVRGQYYITMDYWGQGTTVTVSS
VL: DIVMTQSQKFMSTTVGDRVSITCKASQNVGAAVVWYQQKPGQSPKLLIYSASYRYSGVPDRFTGSGSGTDFTLTISNMQSEDLADYFCQQYNSFPLTFGGGTKLEIK
